Target: human plasma glycoproteins
Assay: far-Western, overlay or dot blot; human or rat plasma diluted 1:10, boiled with LDS sample buffer and 50 mM DTT, separated on 3-8% polyacrylamide gradient gels, transferred to BioTraceNT; GST-SLBR 5 nM in DPBS with 1x Blocking Reagent, 90 min, room temperature; detected with anti-GST

Substance: GST-tagged Siglec-like binding region of Hsa, V370F mutant (from UniProt A8AWU7 220-453) (domain or fragment)
- fold decrease in total binding against wild type: 3 fold

Source: publication doi:10.1101/2025.06.24.660003
